In patent US20260070976A1 (Alector, published 2026) one finds Kd data, which are given here for 15 molecules.

One assay deals with recombinant human PILRB (human, UniProt Q9UKJ0 20-191). As to the kind of experiment: SPR, Carterra LSA, steady-state fit. The procedure:
(§1) Binding kinetics of human anti-PILRA-IgG4 antibodies were evaluated by surface plasmon resonance (SPR) using a Carterra LSA instrument (Carterra, Salt Lake City, UT). Antibodies were immobilized in duplicate arrays onto an HC30M sensor chip (Carterra) by amine coupling according to the manufacturer's protocol. After priming the immobilized antibodies with HBS-EP+ (Teknova, Hollister, CA, #8022) running buffer with 0.5 mg/mL BSA (MP Biomedicals LLC, #820451), the immobilized antibodies were tested for their ability to bind to recombinant human PILRA (SEQ ID NO:1) and cynomolgus PILRA (SEQ ID NO:120) and to human PILRB (SEQ ID NO:105) and cynomolgus PILRB (SEQ ID NO:121).
(§2) For binding kinetics analysis, human and cynomolgus PILRA and PILRB analytes were diluted in running buffer to 440 to 470 nM, and diluted 3-fold serially five times, to 1.8 to 1.9 nM, and injected for five minutes over the entire chip using the single channel flow cell to measure association of binding to the immobilized antibodies. Dissociation of the analytes was measured for five minutes, followed by regeneration of the chip with two 30-second injections of 10 mM glycine pH 2.0.
For the human PILRB interactions, the binding was too weak and heterogenous for kinetic constants to be calculated in this assay. Therefore, steady-state affinities were estimated based on the binding level of each analyte concentration at the end of the injections.

The target of another assay is recombinant human PILRA (human, UniProt Q9UKJ1 20-197). As to the kind of experiment: SPR, Carterra LSA, antibody amine-coupled, kinetic fit. The procedure: as §1, §2
recombinant human PILRA, sequence (Q9UKJ1 20-197 limits assumed): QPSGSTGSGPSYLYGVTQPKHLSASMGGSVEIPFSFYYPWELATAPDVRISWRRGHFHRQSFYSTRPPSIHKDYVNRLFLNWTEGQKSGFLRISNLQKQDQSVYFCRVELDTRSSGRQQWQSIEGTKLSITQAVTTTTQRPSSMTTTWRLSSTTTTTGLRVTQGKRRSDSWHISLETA
(SPR reads the build-up and loss of mass on a sensor chip optically.)

The target of assay [1] is T1, recombinant cynomolgus PILRA (SEQ ID NO:120) (cynomolgus monkey).
T1 construct: also called cyno PILRA
T1 sequence (chain, as listed by the source limits assumed): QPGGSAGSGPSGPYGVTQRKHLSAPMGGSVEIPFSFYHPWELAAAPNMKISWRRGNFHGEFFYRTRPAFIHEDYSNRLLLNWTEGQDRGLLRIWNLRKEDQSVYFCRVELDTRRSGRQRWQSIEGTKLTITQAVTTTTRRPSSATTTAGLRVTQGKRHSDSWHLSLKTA
The description is as above. As for the experimental part:
as §1, §2

recombinant human PILRB, sequence (Q9UKJ0 20-191 limits assumed): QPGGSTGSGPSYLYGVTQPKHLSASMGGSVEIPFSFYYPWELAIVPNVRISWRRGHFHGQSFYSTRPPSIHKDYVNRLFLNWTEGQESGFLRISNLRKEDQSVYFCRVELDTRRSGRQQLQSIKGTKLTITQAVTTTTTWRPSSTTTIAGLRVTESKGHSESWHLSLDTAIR

B1: X4 (antibody, human IgG4, V domains shown)
VH: QVQLVQSGAEVKKPGSSVKVSCKASGYNFLNYDVNWVRQAPGQGLEWMGGIIPIFGTANYAQKFQGRVTITADESTSTAYMELSSLRSEDTAVYYCATGVGAGWFDPWGQGTLVTVSS
VL: DIVMTQSPDSLAVSLGERATINCKSSQSVYFSPNNKNYLAWYQQKPGQPPKLLIYWASTRESGVPDRFSGSGSGTDFTLTISSLQAEDVAVYYCQQYFEEPYTFGQGTRLEIK
With B1, the Kd with recombinant human PILRB was 138 nM; with recombinant human PILRA, 12 nM; in assay [1], 0.2 nM.

B2: X27 (antibody, human IgG4, V domains shown)
VH: QVQLVQSGAEVKKPGSSVKVSCKASGYNFLNYDVNWVRQAPGQGLEWMGGIIPIFGTANYAQKFQGRVTITADESTSTAYMELSSLRSEDTAVYYCATAVGAGWFDPWGQGTLVTVSS
VL: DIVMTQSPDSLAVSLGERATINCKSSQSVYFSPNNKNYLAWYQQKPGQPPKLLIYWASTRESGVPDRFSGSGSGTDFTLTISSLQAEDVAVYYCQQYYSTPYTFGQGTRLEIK
Take B2: the Kd was found to be 87 nM in the assay with recombinant human PILRB, 13 nM with recombinant human PILRA and 0.5 nM in assay [1].

B3: X9 (antibody, human IgG4, V domains shown)
VH: QVQLVQSGAEVKKPGSSVKVSCKASGYNFLNYDVNWVRQAPGQGLEWMGGIIPIFGTANYAQKFQGRVTITADESTSTAYMELSSLRSEDTAVYYCATGVGAGWFDPWGQGTLVTVSS
VL: DIVMTQSPDSLAVSLGERATINCKSSQSVFFDVNNKNYLAWYQQKPGQPPKLLIYWASTRESGVPDRFSGSGSGTDFTLTISSLQAEDVAVYYCQQYYEEPYTFGQGTRLEIK
In the case of B3, the Kd in the assay with recombinant human PILRB was 39 nM; with recombinant human PILRA, 2.8 nM; in assay [1], 0.1 nM.

B4: X26 (antibody, human IgG4, V domains shown)
VH: QVQLVQSGAEVKKPGSSVKVSCKASGYNFLNYDVNWVRQAPGQGLEWMGGIIPIFGTANYAQKFQGRVTITADESTSTAYMELSSLRSEDTAVYYCATAVGAGWFDPWGQGTLVTVSS
VL: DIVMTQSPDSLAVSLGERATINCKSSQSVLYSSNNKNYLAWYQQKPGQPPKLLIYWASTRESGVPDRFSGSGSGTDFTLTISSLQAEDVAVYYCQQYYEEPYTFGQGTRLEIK
B4: the Kd amounted to 199 nM with recombinant human PILRB, 8.1 nM in the assay with recombinant human PILRA and 0.3 nM in assay [1].

B5: X23 (antibody, human IgG4, V domains shown)
VH: QVQLVQSGAEVKKPGSSVKVSCKASGYNFLHYDVNWVRQAPGQGLEWMGGIIPIFGTANYAQKFQGRVTITADESTSTAYMELSSLRSEDTAVYYCATGVGAGWFDPWGQGTLVTVSS
VL: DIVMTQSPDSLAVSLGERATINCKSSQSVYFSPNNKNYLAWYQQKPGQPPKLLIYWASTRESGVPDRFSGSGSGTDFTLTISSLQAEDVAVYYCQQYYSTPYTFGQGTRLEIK
For the molecule B5, the results for the Kd (with recombinant human PILRB; with recombinant human PILRA; in assay [1]) were 35 nM, 3.9 nM and 0.3 nM, respectively.

B6: X17 (antibody, human IgG4, V domains shown)
VH: QVQLVQSGAEVKKPGSSVKVSCKASGYNFLHYDVNWVRQAPGQGLEWMGGIIPIFGTANYAQKFQGRVTITADESTSTAYMELSSLRSEDTAVYYCATAVGAGWFDTWGQGTLVTVSS
VL: DIVMTQSPDSLAVSLGERATINCKSSQSVFFDENNKNYLAWYQQKPGQPPKLLIYWASTRESGVPDRFSGSGSGTDFTLTISSLQAEDVAVYYCQQYFEEPYTFGQGTRLEIK
On to B6, for which the results for the Kd (with recombinant human PILRB; with recombinant human PILRA; in assay [1]) were 2 nM, 0.4 nM and 0.1 nM, respectively.

B7: X6 (antibody, human IgG4, V domains shown)
VH: QVQLVQSGAEVKKPGSSVKVSCKASGYNFLNYDVNWVRQAPGQGLEWMGGIIPIFGTANYAQKFQGRVTITADESTSTAYMELSSLRSEDTAVYYCATGVGAGWFDPWGQGTLVTVSS
VL: DIVMTQSPDSLAVSLGERATINCKSSQSVYFDVNNKNYLAWYQQKPGQPPKLLIYWASTRESGVPDRFSGSGSGTDFTLTISSLQAEDVAVYYCQQYFEEPYTFGQGTRLEIK
Regarding B7, the Kd with recombinant human PILRB stood at 35 nM; with recombinant human PILRA, 3.1 nM; in assay [1], 0.1 nM.

B8: X24 (antibody, human IgG4, V domains shown)
VH: QVQLVQSGAEVKKPGSSVKVSCKASGYNFLHYDVNWVRQAPGQGLEWMGGIIPIFGTANYAQKFQGRVTITADESTSTAYMELSSLRSEDTAVYYCATGVGAGWFDPWGQGTLVTVSS
VL: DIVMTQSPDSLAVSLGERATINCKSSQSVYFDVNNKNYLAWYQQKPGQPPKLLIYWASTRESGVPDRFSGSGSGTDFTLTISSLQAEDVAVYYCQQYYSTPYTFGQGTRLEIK
As for B8, the Kd was found to be 16 nM with recombinant human PILRB, 1.7 nM with recombinant human PILRA and 0.2 nM in assay [1].

B9: X30 (antibody, human IgG4, V domains shown)
VH: QVQLVQSGAEVKKPGSSVKVSCKASGYNFLNYDVNWVRQAPGQGLEWMGGIIPIFGTANYAQKFQGRVTITADESTSTAYMELSSLRSEDTAVYYCATGVGAGWFDPWGQGTLVTVSS
VL: DIVMTQSPDSLAVSLGERATINCKSSQSVYFDVNNKNYLAWYQQKPGQPPKLLIYWASTRESGVPDRFSGSGSGTDFTLTISSLQAEDVAVYYCQQYYEEPYTFGQGTRLEIK
B9: the Kd in the assay with recombinant human PILRB was determined as 43 nM; with recombinant human PILRA, 3.3 nM; in assay [1] it was 0.1 nM.

B10: X15 (antibody, human IgG4, V domains shown)
VH: QVQLVQSGAEVKKPGSSVKVSCKASGYNFLHYDVNWVRQAPGQGLEWMGGIIPIFGTANYAQKFQGRVTITADESTSTAYMELSSLRSEDTAVYYCATAVGAGWFDTWGQGTLVTVSS
VL: DIVMTQSPDSLAVSLGERATINCKSSQSVFFDVNNKNYLAWYQQKPGQPPKLLIYWASTRESGVPDRFSGSGSGTDFTLTISSLQAEDVAVYYCQQYFEEPYTFGQGTRLEIK
On to B10, for which the Kd in the assay with recombinant human PILRB came to 2 nM; with recombinant human PILRA, 0.1 nM; in assay [1], 0.1 nM.

B11: X25 (antibody, human IgG4, V domains shown)
VH: QVQLVQSGAEVKKPGSSVKVSCKASGYNFLNYDVNWVRQAPGQGLEWMGGIIPIFGTANYAQKFQGRVTITADESTSTAYMELSSLRSEDTAVYYCATAVGAGWFDPWGQGTLVTVSS
VL: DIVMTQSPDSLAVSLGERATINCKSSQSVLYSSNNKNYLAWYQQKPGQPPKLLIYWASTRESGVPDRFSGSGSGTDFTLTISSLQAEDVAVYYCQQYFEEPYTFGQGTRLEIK
B11: the figures for the Kd (in the assay with recombinant human PILRB; with recombinant human PILRA; in assay [1]) were 211 nM, 7 nM and 0.3 nM, respectively.

B12: X5 (antibody, human IgG4, V domains shown)
VH: QVQLVQSGAEVKKPGSSVKVSCKASGYNFLNYDVNWVRQAPGQGLEWMGGIIPIFGTANYAQKFQGRVTITADESTSTAYMELSSLRSEDTAVYYCATGVGAGWFDPWGQGTLVTVSS
VL: DIVMTQSPDSLAVSLGERATINCKSSQSVFFDVNNKNYLAWYQQKPGQPPKLLIYWASTRESGVPDRFSGSGSGTDFTLTISSLQAEDVAVYYCQQYFEEPYTFGQGTRLEIK
As to B12, the Kd with recombinant human PILRB turned out to be 35 nM; with recombinant human PILRA, 2.4 nM; in assay [1] it was 0.1 nM.

B13: X19 (antibody, human IgG4, V domains shown)
VH: QVQLVQSGAEVKKPGSSVKVSCKASGYNFLHYDVNWVRQAPGQGLEWMGGIIPIFGTANYAQKFQGRVTITADESTSTAYMELSSLRSEDTAVYYCATAVGAGWFDPWGQGTLVTVSS
VL: DIVMTQSPDSLAVSLGERATINCKSSQSVFFDENNKNYLAWYQQKPGQPPKLLIYWASTRESGVPDRFSGSGSGTDFTLTISSLQAEDVAVYYCQQYYEEPYTFGQGTRLEIK
Consider B13, for which the Kd came out at 2 nM in the assay with recombinant human PILRB, 0.3 nM with recombinant human PILRA and 0.1 nM in assay [1].

B14: X28 (antibody, human IgG4, V domains shown)
VH: QVQLVQSGAEVKKPGSSVKVSCKASGYNFLNYDVNWVRQAPGQGLEWMGGIIPIFGTANYAQKFQGRVTITADESTSTAYMELSSLRSEDTAVYYCATAVGAGWFDPWGQGTLVTVSS
VL: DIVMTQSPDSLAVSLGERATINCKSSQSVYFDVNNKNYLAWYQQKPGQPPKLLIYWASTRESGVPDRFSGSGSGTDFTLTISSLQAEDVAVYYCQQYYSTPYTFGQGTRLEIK
In the case of B14, the Kd with recombinant human PILRB stood at 33 nM; in the assay with recombinant human PILRA it was 3.8 nM; in assay [1], 0.3 nM.

B15: X10 (antibody, human IgG4, V domains shown)
VH: QVQLVQSGAEVKKPGSSVKVSCKASGYNFLNYDVNWVRQAPGQGLEWMGGIIPIFGTANYAQKFQGRVTITADESTSTAYMELSSLRSEDTAVYYCATGVGAGWFDPWGQGTLVTVSS
VL: DIVMTQSPDSLAVSLGERATINCKSSQSVFFDENNKNYLAWYQQKPGQPPKLLIYWASTRESGVPDRFSGSGSGTDFTLTISSLQAEDVAVYYCQQYYEEPYTFGQGTRLEIK
With B15, the Kd in the assay with recombinant human PILRB stood at 68 nM; with recombinant human PILRA, 3.2 nM; in assay [1], 0.3 nM.

As a reminder, the Kd is the concentration at which binding is half-saturated.
